Here are results for six molecules from publication doi:10.1101/2025.07.22.666130 (bioRxiv, 2025).

B1: GST-tagged RAD52 CTD (217-418) wild type (domain or fragment)
chain: PQLQQVTSPSRPSHAVIPADQDCSSRSLSSSAVESEATHQRKLRQKQLQQQFRERMEKQQVRVSTPSAEKSEAAPPAPPVTHSTPVTVSEPLLEKDFLAGVTQELIKTLEDNSEKWAVTPDAGDGVVKPSSRADPAQTSDTLALNNQMVTQNRTPHSVCHQKPQAKSGSWDLQTYSADQRTTGNWESHRKSQDMKKRKYDPS
B2: GST-tagged RAD52 CTD (217-418) L314A/V317N/L321Q/I322Q/L325A/W332A (domain or fragment, human, UniProt P43351 217-418, looked up)
chain: B1 chain with L98A, V101N, L105Q, I106Q, L109A, W116A
B3: 15N-labeled RAD52-CTD (217-418), GST tag cleaved (domain or fragment)
chain: B1 chain
modifications: uniformly 15N labeled
B4: Human RPA70N (1-120) (domain or fragment)
chain: MVGQLSEGAIAAIMQKGDTNIKPILQVINIRPITTGNSPPRYRLLMSDGLNTLSSFMLATQLNPLVEEEQLSSNCVCQIHRFIVNTLKDGRRVVILMELEVLKSAEAVGVKIGNPVPYNE
B5: no. 517 63-mer RNA (ssRNA)
RNA: UCCUUUUGAUAAGAGGUCAUUUUUGCGGAUGGCUUAGAGCUUAAUUGCUGAAUCUGGUGCUGU
B6: no. 1 63-mer ssDNA (ssDNA)
DNA: ACAGCACCAGATTCAGCAATTAAGCTCTAAGCCATCCGCAAAAATGACCTCTTATCAAAAGGA

Where a chain is given by its changes, count along the chain named. In names and notes the source's numbering stands. Read-outs that look alike come from different tables or passages of the source.

Data set [1] concerns the target T1, full-length RPA trimer (RPA70:RPA14:RPA32) (human, UniProt P27694;P15927;P35244). The data set can be described thus: pull-down.
The target in data set [2] is T1, full-length RPA trimer …. Kind of data set: pull-down. This is another data set of the same source.
In data set [3] the target is T1, full-length RPA trimer …. Kind of data set: NMR titration.
Data set [4] addresses B3. The data set can be described thus: NMR titration.
Data set [5] deals with T2, RAD52 full length (UniProt P43351 1-418).
T2 sequence: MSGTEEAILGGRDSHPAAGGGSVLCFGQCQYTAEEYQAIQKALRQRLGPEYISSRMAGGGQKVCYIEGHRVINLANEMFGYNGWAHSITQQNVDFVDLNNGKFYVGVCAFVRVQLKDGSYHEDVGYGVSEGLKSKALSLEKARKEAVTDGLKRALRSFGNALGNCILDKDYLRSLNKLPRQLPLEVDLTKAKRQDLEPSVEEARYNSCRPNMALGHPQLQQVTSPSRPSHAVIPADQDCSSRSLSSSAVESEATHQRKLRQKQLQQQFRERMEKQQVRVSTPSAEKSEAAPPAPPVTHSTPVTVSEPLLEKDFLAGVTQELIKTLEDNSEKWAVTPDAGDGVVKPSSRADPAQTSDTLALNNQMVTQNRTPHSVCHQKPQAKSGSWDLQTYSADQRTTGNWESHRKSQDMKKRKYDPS
Kind of data set: EMSA. (Mobility shift assays separate free from complexed probe on a gel.)

Data set [6] deals with T3, RAD52-CTD (UniProt P43351 217-418).
T3 sequence: B1 chain
The data set can be described thus: EMSA.

The target in data set [7] is RPA heterotrimer (RPA70:RPA32:RPA14) (human, UniProt P27694;P15927;P35244 1-616;1-270;1-121). The data set can be described thus: EMSA.
RPA heterotrimer (RPA70:RPA32:RPA14), sequence (P15927 whole entry, chain 2 of 2): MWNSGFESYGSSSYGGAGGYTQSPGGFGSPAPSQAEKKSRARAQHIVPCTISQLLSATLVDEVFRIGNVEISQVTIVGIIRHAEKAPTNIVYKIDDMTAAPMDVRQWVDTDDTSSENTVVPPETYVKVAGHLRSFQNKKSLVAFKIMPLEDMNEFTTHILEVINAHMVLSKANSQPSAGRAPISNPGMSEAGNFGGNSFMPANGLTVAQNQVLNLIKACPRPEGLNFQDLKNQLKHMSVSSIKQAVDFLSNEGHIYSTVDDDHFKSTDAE
RPA heterotrimer (RPA70:RPA32:RPA14), sequence (P35244 whole entry, chain 3 of 2): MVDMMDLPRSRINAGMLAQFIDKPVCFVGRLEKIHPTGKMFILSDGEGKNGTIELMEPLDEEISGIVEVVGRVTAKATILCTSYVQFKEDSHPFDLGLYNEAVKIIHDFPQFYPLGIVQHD
Data set [8] addresses T2, RAD52 full length. The data set can be described thus: EMSA. The source holds these as a separate data set.
Data set [9] deals with T3, RAD52-CTD. Kind of data set: EMSA. This is another data set of the same source.

T1 sequence (P15927 whole entry, chain 2 of 2): as the sequence (P15927 whole entry, chain 2 of 2) above
T1 sequence (P35244 whole entry, chain 3 of 2): as the sequence (P35244 whole entry, chain 3 of 2) above

Turning to B1, the binding result in [1] is on record as “binds”.

In the case of B2, the binding result in data set [2] was “binds”.

B3: the binding result in data set [3] was “binds”.

Take B4: the binding result in data set [4] is on record as “binds”.

In the case of B5, the values for the binding result in [5], in data set [6] and in [7] were “binds”, “no binding” and “binds”, respectively.

Turning to B6, the binding result in data set [8] is given as “binds”; in data set [9], “no binding”.
